Experiment: soluble on expression in E. coli; label from the status in PepcDB or PDB records

Sequence | soluble on expression in E. coli
MKYIVAVNASPRSGWNTSQLVEAAAKGAKEAGATVDIIDLYKLEPFQGCISCFGCKLPRTFGRCVSKDGLSEVLDKIRKADGLILGSPNYLGNLTAGFRALYERLIFQSLTYNKERPNCNEHMIPVLLITTSNCDESIYDKIGYTSMLEGYKQMLERFVGPLEHHHHHH | not soluble
MGSDKIHHHHHHMAKNKQEDIFDAAMQLFAERGYDGTTIPMIAEKAKVGAGTIYRYFENKEALVNSLFSKSMLQLSEMIKTDFPVEANIREQFSHTYNRLFEFARNNVDAFLFTNSHCDSYFLDEQSKKIFDDFIGFFMNIIEDGIVKGLLRPLPPVALIIIVYQPLEKLIKVIATGQLEYSKELVKELEESSWNAIRII | not soluble
LYAPLVSLMITVPVFGQHEYTHALVADLEREGADYLIVDNRGDYPRIGTERVSTPGENLGWAGGSELGFRLAFAEGYSHAMTLNNDTRVSKGFVAALLDSRLPADAGMVGPMFDVGFPFAVADEKPDAESYVPRARYRKVPAVEGTALVMSRDCWDAVGGMDLSTFGRYGWGLDLDLALRARKSGYGLYTTEMAYINHFGRKTANTHFGGHRYHWGASAAMIRGLRRTHGWPAAMGILREMGMAHHRKWHKSFPLTCPASC | not soluble
SVSTTFRRIVSPCWRPFGIGEDSSPGSDDTNGRLDGLLWYKDSGNHITGEFSMAVVQANNLLEDHSQLESGPISLHESGPEATFVGVYDGHGGPEAARFVNDRLFYNIKRYTSEQRGMSPDVITRGFVATEEEFLGLVQEQWKTKPQIASVGACCLVGIVCNGLLYVANAGDSRVVLGKVANPFKELKAVQLSTEHNASIESVREELRLLHPDDPNIVVLKHKVWRVKGIIQVSRSIGDAYLKRAEFNQEPLLPKFRVPERFEKPIMRAEPTITVHKIHPEDQFLIFASDGLWEHLSNQEAVDIVNSCPRNGVARKLVKAALQEAAKKREMRYSDLEKIERGIRRHFHDDITVIVVFLHATNFATRTPISVKGGGLLSAHNPVL | soluble
MGSDKIHHHHHHLSFLYVYERSAKIGVQENCVVVESKKENLKRILPIEGVENVIIFGDASLSSNCVKQFMERDINLTWLSSRGKFYGRLESTRNVNIYRQRKQFACGEDDEFCLALAKRIILAKVKNQITILRRYRRNRPEKSVQKIIDAMAKLLPIMERVHNKDELMGHEGMAARYYYQGLAELVEPDFAFSGRNRQPPRDPFNSLLSFAYTLLMYDLYTAAVNRGLNPYASFLHSIRRGHPALCSDLMEEWRAILADSLALYVTSKGIIKRENFEKPNEEGGVYLDGIGSKAFIAEYEKKVRGRSNYLAYVDYSVSFRRAMEMQCQRLAKAIEEGDPSIYQPVVIR | not soluble
MKTIEVDDELYSYIASHTKHIGESRSDILRRMLKFSAASQKPVKTIKDKVRAMRELLLSDEYAEQKRAVNRFMLLLSTLYSLDAQAFAEATESLHGRTRVYFAADEQTLLKNGNQTKPKHVPGTPYWVITNTNTGRKCSMIEHIMQSMQFPAELIEKVCGTI | soluble
MNRSALDFRHFVDHLRRQGDLVDVHTEVDANLEIGAITRRVYERRAPAPLFHNIRDSLPGARVLGAPAGLRADRARAHSRLALHFGLPEHSGPRDIVAMLRAAMRAEPIAPRRLERGPVQENVWLGEQVDLTRFPVPLLHEQDGGRYFGTYGFHVVQTPDGSWDSWSVGRLMLVDRNTLAGPTIPTQHIGIIREQWRRLGKPTPWAMALGAPPAALAAAGMPLPEGVSEAGYVGALVGEPVEVVRTQTNGLWVPANTEIVLEGEISLDETALEGPMGEYHGYSFPIGKPQPLFHVHALSFRDQPILPICVAGTPPEENHTIWGTMISAQLLDVAQNAGLPVDMVWCSYEAATCWAVLSIDVQRLAALGTDAAAFAARVAETVFGSHAGHLVPKLILVGNDIDVTEIDQVVWALATRAHPLHDHFAFPQIRDFPMVPYLDAEDKARGSGGRLVINCLYPEQFAGQMRAATASFRHAYPTALRRRVEERWSDYGFGDALEHHHHHH | not soluble
MILELDCGNSLIKWRVIEGAARSVAGGLAESDDALVEQLTSQQALPVRACRLVSVRSEQETSQLVARLEQLFPVSALVASSGKQLAGVRNGYLDYQRLGLDRWLALVAAHHLAKKACLVIDLGTAVTSDLVAADGVHLGGYICPGMTLMRSQLRTHTRRIRYDDAEARRALASLQPGQATAEAVERGCLLMLRGFVREQYAMACELLGPDCEIFLTGGDAELVRDELAGARIMPDLVFVGLALACPIE | not soluble
MGGMDTGVTSPRVLVVDDDSDVLASLERGLRLSGFEVATAVDGAEALRSATENRPDAIVLDINMPVLDGVSVVTALRAMDNDVPVCVLSARSSVDDRVAGLEAGADDYLVKPFVLAELVARVKALLRRRGSTATSSSETITVGPLEVDIPGRRARVNGVDVDLTKREFDLLAVLAEHKTAVLSRAQLLELVWGYDFAADTNVVDVFIGYLRRKLEAGGGPRLLHTVRGVGFVLRMQ | soluble
MKRAVITGLGIVSSIGNNQQEVLASLQEGRSGITFAQEFKDAGMRSHVWGDVKLQSEPKDLIDRKVLRFMSDASIYAYLAMQEAIADSGLSDSQVSNFRSGLVVGSGGGSPRNQVAGSDAMRTPRGLKGVGPYMVTKAMASGVSACLATPFKIKGVNYSISSACATSAHCIGHALELIQLGKQDIVFAGGGEELCWEMACEFDAMGALSTKYNDTPAKASRTYDQDRDGFVIAGGGGMVVVEELEHALARGAHIYAEIVGYGATSDGADMVAPSGEGAVRCMQMAMAGVDTPIDYMNVHGTSTPVGDVKELGAIREVFGNNTPAISSTKAMTGHSLGAAGVHEAIFSLLMVEHGFIAPSINIDNLDEQAQGMNIITETTQRELTTVMSNSFGFGGTNATLVMRKYQK | not soluble
MGSSHHHHHHSSGLVPRGSHMRLAGILLHVTSLPSPYGIGDLGKEAYRFLDFLKECGFSLWQVLPLNPTSLEAGNSPYSSNSLFAGNYVLIDPEELLEEDLIKERDLKRFPLGEALYEVVYEYKKELLEKAFKNFRRFELLEDFLKEHSYWLRDYALYMAIKEEEGKEWYEWDEELKRREKEALKRVLNKLKGRFYFHVFVQFVFFKQWEKLRRYARERGISIVGDLPMYPSYSSADVWTNPELFKLDGDLKPLFVAGVPPDFFSKTGQLWGNPVYNWEEHEKEGFRWWIRRVLHNLKLFDFLRLDHFRGFEAYWEVPYGEETAVNGRWVKAPGKTLFKKLLSYFPKNPFIAEDLGFITDEVRYLRETFKIPGSRVIEFAFYDKESEHLPHNVEENNVYYTSTHDLPPIRGWFENLGEESRKRLFEYLGREIKEEKVNEELIRLVLISRAKFAIIQMQDLLNLGNEARMNYPGRPFGNWRWRIKEDYTQKKEFIKKLLGIYGREV | soluble
MPKTQGLSPESLISQFARCEEGWCVQYHDVILASAFQPVISITHKRVVGYEALVRATDANNAQISPDTLFARAQARGETILLDRLTRCLHVANFSEQDTGSCWLFLNVLPQMFDAGIAPSVFIEALCAHFALPPTRVVLEVIEQPSRNEPALARTLDMIQHGDFLIAVDDFGTGFSNFDRIWQIKPDIVKLDRSILERSLAASDAHRIVHHLVTMLHHAGTMVLAEGVENEDALQILMDADVDFVQGFCFGLPDPSLERARRAAPARIETAWQRFAERVKERRGDVVHPGFDTIERIVLAGAADYAQARDLRGAAQRLLTNPIVRRVFVAEANGEQVEPSVTNETPDTPSATTRRLAPLLPELHCNWSRRAYFQRAVAAPGRVALMGPHFSLTDGRDCYTAAVAIHLGTTLKVFCVDFDFSSYGDGQ | not soluble
MIYRFTIISDEVDDFVREIQIDPEATFLDFHEAILKSVGYTNDQMTSFFICDDDWEKEKEVTLEEMDDNPEMDSWIMKETTISELVEDEKQKLLYVFDYMTERCFFIELSEIITGKDMNGAKCTKKSGDAPPQTVDFEEMAAASGSLDLDENFYGDQDFDMEDFDQEGFDIGGNAGGSYEEEKFLEHHHHHH | soluble
MEALILEPSLYTVKAILILDNDGDRLFAKYYDDTYPSVKEQKAFEKNIFNKTHRTDSEIALLEGLTVVYKSSIDLYFYVIGSSYENELMLMAVLNCLFDSLSQMLRKNVEKRALLENMEGLFLAVDEIVDGGVILESDPQQVVHRVALR | soluble
MSHYLSPGAYLPHDAPMLLLEDVVSVSDDSAVCRVTVSPSGVLAPFLDPDGNLPGWFTLELMAQTVGVWSGWHRHQQGKNSIELGMILGARELLCTTGILPAGQTLTITVKLLMQDDRFGSFECSINDGEATGRINTFQPTAEELTTLFQQGAS | not soluble
MPDYLVVLQAAWIVRKARSVEDAMNIAVAEAGKKLNPDLDFVKIDVGDTACPKCNSPLKAVFMVAGVALVGLIFEMKVFNAKSPEHAAKIAKYEIGKRMPRIPLEVIEVAEIE | not soluble
GSHMSAEASARPLRVGSRVEVIGKGHRGTVAYVGATLFATGKWVGVILDEAKGKNDGTVQGRKYFTCDEGHGIFVRQSQIQVFEDGADTTSPETPDS | soluble
MEVAVEKAVAAAAAASAAASGGPSAAPSGENEAESRQGPDSERGGEAARLNLLDTCAVCHQNIQSRAPKLLPCLHSFCQRCLPAPQRYLMLPAPMLGSAETPPPVPAPGSPVSGSSPFATQVGVIRCPVCSQECAERHIIDNFFVKDTTEVPSSTVEKSNQVCTSCEDNAEANGFCVECVEWLCKTCIRAHQRVKFTKDHTVRQKEEVSPEAVGVTSQRPVFCPFHKKEQLKLYCETCDKLTCRDCQLLEHKEHRYQFIEEAFQNQKVIIDTLITKLMEKTKYIKFTGNQIQNRIIEVNQNQKQVEQDIKVAIFTLMVEINKKGKALLHQLESLAKDHRMKLMQQQQEVAGLSKQLEHVMHFSKWAVSSGSSTALLYSKRLITYRLRHLLRARCDASPVTNNTIQFHCDPSFWAQNIINLGSLVIEDKESQPQMPKQNPVVEQNSQPPSGLSSNQLSKFPTQISLAQLRLQHMQQQVMAQRQQVQRRPAPVGLPNPRMQGPIQQPSISHQQPPPRLINFQNHSPKPNGPVLPPHPQQLRYPPNQNIPRQAIKPNPLQMAFLAQQAIKQWQISSGQGTPSTTNSTSSTPSSPTITSAAGYDGKAFGSPMIDLSSPVGGSYNLPSLPDIDCSSTIMLDNIVRKDTNIDHGQPRPPSNRTVQSPNSSVPSPGLAGPVTMTSVHPPIRSPSASSVGSRGSSGSSSKPAGADSTHKVPVVMLEPIRIKQENSGPPENYDFPVVIVKQESDEESRPQNANYPRSILTSLLLNSSQSSTSEETVLRSDAPDSTGDQPGLHQDNSSNGKSEWLDPSQKSPLHVGETRKEDDPNEDWCAVCQNGGELLCCEKCPKVFHLSCHVPTLTNFPSGEWICTFCRDLSKPEVEYDCDAPSHNSEKKKTEGLVKLTPIDKRKCERLLLFLYCHEMSLAFQDPVPLTVPDYYKIIKNPMDLSTIKKRLQEDYSMYSKPEDFVADFRLIFQNCAEFNEPDSEVANAGIKLENYFEELLKNLYPEKRFPKPEFRNESEDNKFSDDSDDDFVQPRKKRLKSIEERQLLK | soluble
MNLTHQDFNLFNREIFTFKQLKEQQTSAEIDALKQTYKQHWEKWKALNLAIAQGLPAELGITKPKIESWTNGWNLRSHFWAAYRSEQRQAENACLALLLNKKQFQVYLMFQHYKSEERTGSVVAYNQLLNRLEAWSQTIDCEGYYIWPQEEHELVDHLPLKDYLADEKQRKILEERIGNRSFQIGKLWFATEKLETIEEKSCQALQELAPLYNALSEK | not soluble
MITVSIAGGSQPEILQLVKKALKEAEQPLQFIVFDTNENLDTENLWKYVHCSDEAAVAQEAVSLVATGQAQILLKGIIQTHTLLKEMLKSEHQLKNKPILSHVAMVELPAGKTFLLTDCAMNIAPTQATLIEIVENAKEVAQKLGLHHPKIALLSAAENFNPKMPSSVLAKEVTAHFNDQQEATVFGPLSLDLATSEEAVAHKRYSGPIMGDADILVVPTIDVGNCLYKSLTLFGHAKVGGTIVGTKVPVVLTSRSDSTESKFHSLRFAMRQVHHHHHH | soluble
